Laboratory results as given in publication doi:10.1101/238154.
pKd: −log10 of the molar value.

Key:
[1] = target: SAGA DUB module containing Ubp8^C146A (yeast) (UniProt P50102); assay: ITC
[2] = target: SAGA DUB module containing Ubp8^C146S (yeast) (UniProt P50102); assay: ITC
[3] = target: FlAsH tagged K63-linked diubiquitin (UniProt P0CG47); assay: fluorescence polarisation

Sequence of SAGA DUB module containing Ubp8^C146S (yeast) (P50102 whole entry C146S, chain 1 of 4): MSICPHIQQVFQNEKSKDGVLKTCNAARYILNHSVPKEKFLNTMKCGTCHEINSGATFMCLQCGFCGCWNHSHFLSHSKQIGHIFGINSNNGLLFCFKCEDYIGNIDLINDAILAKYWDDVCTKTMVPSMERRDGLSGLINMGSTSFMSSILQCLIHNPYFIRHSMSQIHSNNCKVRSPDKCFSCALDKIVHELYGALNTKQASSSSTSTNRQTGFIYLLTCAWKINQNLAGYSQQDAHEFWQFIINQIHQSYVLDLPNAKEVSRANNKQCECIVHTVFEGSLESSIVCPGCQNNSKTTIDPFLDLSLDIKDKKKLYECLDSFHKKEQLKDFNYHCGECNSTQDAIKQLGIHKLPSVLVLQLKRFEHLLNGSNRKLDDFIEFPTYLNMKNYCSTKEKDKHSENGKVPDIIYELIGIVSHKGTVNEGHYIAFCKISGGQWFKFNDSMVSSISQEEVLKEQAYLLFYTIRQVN
Sequence of SAGA DUB module containing Ubp8^C146S (yeast) (Q03067 whole entry, chain 2 of 4, further chain): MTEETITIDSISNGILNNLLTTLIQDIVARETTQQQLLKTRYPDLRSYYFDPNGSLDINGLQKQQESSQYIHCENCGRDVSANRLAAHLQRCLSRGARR
Sequence of SAGA DUB module containing Ubp8^C146S (yeast) (Q6WNK7 whole entry, chain 3 of 4, further chain): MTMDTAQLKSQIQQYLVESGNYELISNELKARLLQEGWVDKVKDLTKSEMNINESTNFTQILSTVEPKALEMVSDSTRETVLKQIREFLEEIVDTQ
Sequence of SAGA DUB module containing Ubp8^C146S (yeast) (P53165 1-96, chain 4 of 4, further chain): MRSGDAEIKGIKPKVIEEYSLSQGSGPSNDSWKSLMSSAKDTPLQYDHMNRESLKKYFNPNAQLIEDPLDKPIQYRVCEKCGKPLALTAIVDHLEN
Sequence of SAGA DUB module containing Ubp8^C146A (yeast) (P50102 whole entry C146A, chain 1 of 4): as the sequence (P50102 whole entry C146S, chain 1 of 4) above, with S146A counted along it
Sequence of SAGA DUB module containing Ubp8^C146A (yeast) (Q03067 whole entry, chain 2 of 4, further chain): as the sequence (Q03067 whole entry, chain 2 of 4, further chain) above
Sequence of SAGA DUB module containing Ubp8^C146A (yeast) (Q6WNK7 whole entry, chain 3 of 4, further chain): as the sequence (Q6WNK7 whole entry, chain 3 of 4, further chain) above
Sequence of SAGA DUB module containing Ubp8^C146A (yeast) (P53165 1-96, chain 4 of 4, further chain): as the sequence (P53165 1-96, chain 4 of 4, further chain) above

| Substance | pKd [1] | pKd [2] | pKd [3] |
| --- | --- | --- | --- |
| K48-linked diubiquitin (from UniProt P0CG47 1-76) | 6.33 | 5.34 | – |
| OTUD1^C320A catalytic domain (residues 287-435) (from UniProt Q5VV17 287-435) (domain or fragment) | – | – | 4.40 |
